Key:
MERTK = MERTK (UniProt Q12866); assay: phosphorylation enrichment, bacterial display (enrichment ratio); higher = better substrate or ligand; peptides without Tyr show the background
Fer (mouse) = assay: as above
Jak2 = Jak2 (UniProt O60674); assay: as above
Fyn = Fyn (UniProt P06241); assay: as above
FGFR3 = FGFR3 (UniProt P22607); assay: as above
EPHB2 = EPHB2 (UniProt P29323); assay: as above
EPHB1 = EPHB1 (UniProt P54762); assay: as above
Hck = Hck (UniProt P08631); assay: as above
AncSZ = assay: as above
Fes = Fes (UniProt P07332); assay: as above
Fes, sequence (P07332 whole entry, looked up): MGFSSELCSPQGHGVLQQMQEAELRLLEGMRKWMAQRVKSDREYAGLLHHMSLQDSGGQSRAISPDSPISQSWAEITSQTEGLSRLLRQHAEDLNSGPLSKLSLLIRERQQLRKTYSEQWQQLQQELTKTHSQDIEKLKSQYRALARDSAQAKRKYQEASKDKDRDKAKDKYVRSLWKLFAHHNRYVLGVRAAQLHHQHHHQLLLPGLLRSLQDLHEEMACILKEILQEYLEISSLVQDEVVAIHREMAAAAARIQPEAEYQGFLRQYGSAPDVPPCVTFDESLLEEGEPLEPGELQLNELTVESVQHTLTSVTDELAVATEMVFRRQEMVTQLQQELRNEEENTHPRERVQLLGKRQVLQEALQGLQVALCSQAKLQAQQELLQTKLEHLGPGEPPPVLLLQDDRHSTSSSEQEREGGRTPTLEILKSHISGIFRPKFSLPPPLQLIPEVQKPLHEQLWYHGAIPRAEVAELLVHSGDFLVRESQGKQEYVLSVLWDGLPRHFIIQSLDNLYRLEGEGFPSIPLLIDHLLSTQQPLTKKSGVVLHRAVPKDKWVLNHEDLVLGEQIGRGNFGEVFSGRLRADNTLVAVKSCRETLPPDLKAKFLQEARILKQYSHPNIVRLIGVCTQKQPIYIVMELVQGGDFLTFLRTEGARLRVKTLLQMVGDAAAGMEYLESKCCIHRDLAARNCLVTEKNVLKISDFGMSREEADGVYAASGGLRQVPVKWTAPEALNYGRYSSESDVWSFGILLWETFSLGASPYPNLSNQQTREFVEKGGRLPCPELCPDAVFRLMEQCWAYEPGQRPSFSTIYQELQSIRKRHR

FGFR1 = FGFR1 (UniProt P11362); assay: as above
FGFR1, sequence (P11362 whole entry, looked up): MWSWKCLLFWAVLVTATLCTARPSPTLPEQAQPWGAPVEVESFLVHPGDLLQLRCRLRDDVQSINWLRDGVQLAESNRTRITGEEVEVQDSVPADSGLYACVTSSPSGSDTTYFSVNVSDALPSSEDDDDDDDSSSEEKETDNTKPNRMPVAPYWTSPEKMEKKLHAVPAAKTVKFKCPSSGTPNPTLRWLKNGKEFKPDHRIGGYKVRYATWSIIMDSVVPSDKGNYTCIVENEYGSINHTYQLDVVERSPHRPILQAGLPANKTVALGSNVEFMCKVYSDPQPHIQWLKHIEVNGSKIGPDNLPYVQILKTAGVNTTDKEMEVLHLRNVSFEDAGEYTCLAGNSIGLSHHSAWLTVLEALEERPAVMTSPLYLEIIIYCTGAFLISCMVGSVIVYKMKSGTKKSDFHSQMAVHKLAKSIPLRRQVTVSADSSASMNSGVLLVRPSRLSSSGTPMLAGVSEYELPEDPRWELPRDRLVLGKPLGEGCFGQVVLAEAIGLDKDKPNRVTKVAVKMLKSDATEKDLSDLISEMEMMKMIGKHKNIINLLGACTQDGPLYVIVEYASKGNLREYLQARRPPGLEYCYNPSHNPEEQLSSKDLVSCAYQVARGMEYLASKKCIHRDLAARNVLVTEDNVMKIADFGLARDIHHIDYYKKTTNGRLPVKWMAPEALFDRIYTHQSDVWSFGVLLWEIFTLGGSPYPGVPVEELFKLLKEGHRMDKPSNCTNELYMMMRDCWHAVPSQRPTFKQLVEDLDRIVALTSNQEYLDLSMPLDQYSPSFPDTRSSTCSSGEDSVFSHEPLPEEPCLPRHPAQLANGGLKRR

c-Src = assay: as above
c-Abl (mouse) = assay: as above
SHP2-C SH2 = assay: SH2 binding enrichment of the phosphorylated peptide, bacterial display (enrichment ratio); higher = better substrate or ligand; peptides without Tyr show the background
c-Src SH2 = assay: as above
Grb2 SH2 = Grb2 SH2 (UniProt P62993); assay: as above
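For SH2 binding enrichment of the phosphorylated peptide, bacterial display in this document: peptide library displayed on the E. coli surface as eCPX fusions, selected cells deep-sequenced, score is each peptide's frequency after selection divided by its frequency in the input.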
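For phosphorylation enrichment, bacterial display in this document: 11-residue human phosphosite peptides and single-mutation variants displayed on the E. coli surface, counted by deep sequencing, each peptide's frequency after selection divided by its frequency in the unselected input library; frequency after pTyr selection over input frequency; kinase dosed for 20-30% of maximal phosphorylation in three min.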

MERTK, sequence (Q12866 whole entry, looked up): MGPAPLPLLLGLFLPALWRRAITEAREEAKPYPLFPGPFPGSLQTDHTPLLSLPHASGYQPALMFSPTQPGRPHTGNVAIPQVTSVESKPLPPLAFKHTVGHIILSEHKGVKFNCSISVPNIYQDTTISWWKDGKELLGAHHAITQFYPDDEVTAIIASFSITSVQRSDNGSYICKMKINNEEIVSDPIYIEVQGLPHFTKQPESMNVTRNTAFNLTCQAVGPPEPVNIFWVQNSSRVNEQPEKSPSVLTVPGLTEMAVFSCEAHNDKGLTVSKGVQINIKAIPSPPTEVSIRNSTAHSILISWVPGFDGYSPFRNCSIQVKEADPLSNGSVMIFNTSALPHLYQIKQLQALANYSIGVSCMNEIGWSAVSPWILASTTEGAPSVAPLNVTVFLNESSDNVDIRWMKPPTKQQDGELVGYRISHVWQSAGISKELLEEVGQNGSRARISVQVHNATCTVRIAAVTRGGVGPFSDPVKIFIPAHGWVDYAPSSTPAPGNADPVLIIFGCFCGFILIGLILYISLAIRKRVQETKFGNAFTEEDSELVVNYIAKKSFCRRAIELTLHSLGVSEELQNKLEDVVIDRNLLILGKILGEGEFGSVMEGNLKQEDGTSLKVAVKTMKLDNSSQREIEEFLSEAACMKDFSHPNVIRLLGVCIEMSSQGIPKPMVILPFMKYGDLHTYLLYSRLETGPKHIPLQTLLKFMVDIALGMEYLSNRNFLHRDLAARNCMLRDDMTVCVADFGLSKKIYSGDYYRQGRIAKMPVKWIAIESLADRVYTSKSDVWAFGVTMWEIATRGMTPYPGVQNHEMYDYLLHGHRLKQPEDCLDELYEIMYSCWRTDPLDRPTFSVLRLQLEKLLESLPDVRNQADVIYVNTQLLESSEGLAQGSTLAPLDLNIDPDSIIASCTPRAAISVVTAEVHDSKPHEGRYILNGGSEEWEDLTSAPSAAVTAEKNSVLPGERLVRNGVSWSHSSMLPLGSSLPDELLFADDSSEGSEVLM
FGFR3, sequence (P22607 whole entry, looked up): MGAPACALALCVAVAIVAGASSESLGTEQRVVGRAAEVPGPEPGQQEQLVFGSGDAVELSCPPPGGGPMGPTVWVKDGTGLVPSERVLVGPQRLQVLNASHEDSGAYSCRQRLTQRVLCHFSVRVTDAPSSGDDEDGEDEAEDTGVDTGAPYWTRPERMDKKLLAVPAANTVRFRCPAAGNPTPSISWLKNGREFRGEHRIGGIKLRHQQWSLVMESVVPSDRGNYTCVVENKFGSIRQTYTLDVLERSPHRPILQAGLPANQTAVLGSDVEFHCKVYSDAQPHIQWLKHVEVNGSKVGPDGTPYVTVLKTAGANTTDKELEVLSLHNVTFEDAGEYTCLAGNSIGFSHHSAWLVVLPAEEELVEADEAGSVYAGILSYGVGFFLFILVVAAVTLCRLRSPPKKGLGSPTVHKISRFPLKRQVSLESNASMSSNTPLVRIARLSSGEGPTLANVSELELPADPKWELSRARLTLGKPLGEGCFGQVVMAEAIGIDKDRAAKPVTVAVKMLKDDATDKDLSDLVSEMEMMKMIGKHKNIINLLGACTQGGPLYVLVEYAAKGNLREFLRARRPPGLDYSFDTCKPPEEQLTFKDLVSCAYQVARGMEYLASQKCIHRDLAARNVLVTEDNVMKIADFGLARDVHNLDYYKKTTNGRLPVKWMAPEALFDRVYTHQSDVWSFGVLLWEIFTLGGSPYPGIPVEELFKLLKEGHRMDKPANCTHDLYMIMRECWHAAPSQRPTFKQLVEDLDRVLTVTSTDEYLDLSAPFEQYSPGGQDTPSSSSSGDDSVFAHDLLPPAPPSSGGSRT
Fyn, sequence (P06241 whole entry, looked up): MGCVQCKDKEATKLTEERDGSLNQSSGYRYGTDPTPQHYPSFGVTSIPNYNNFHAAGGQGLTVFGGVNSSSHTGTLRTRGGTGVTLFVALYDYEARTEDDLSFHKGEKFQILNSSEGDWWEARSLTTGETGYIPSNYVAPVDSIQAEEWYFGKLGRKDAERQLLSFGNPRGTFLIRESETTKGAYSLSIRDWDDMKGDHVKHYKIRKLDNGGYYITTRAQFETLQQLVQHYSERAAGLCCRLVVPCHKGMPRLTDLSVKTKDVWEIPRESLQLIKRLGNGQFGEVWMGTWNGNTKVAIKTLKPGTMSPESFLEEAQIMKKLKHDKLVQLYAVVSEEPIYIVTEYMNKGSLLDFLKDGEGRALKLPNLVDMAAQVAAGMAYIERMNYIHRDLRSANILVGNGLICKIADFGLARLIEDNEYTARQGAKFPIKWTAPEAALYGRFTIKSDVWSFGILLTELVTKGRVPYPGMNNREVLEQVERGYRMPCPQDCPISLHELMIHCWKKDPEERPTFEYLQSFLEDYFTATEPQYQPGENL
EPHB1, sequence (P54762 whole entry, looked up): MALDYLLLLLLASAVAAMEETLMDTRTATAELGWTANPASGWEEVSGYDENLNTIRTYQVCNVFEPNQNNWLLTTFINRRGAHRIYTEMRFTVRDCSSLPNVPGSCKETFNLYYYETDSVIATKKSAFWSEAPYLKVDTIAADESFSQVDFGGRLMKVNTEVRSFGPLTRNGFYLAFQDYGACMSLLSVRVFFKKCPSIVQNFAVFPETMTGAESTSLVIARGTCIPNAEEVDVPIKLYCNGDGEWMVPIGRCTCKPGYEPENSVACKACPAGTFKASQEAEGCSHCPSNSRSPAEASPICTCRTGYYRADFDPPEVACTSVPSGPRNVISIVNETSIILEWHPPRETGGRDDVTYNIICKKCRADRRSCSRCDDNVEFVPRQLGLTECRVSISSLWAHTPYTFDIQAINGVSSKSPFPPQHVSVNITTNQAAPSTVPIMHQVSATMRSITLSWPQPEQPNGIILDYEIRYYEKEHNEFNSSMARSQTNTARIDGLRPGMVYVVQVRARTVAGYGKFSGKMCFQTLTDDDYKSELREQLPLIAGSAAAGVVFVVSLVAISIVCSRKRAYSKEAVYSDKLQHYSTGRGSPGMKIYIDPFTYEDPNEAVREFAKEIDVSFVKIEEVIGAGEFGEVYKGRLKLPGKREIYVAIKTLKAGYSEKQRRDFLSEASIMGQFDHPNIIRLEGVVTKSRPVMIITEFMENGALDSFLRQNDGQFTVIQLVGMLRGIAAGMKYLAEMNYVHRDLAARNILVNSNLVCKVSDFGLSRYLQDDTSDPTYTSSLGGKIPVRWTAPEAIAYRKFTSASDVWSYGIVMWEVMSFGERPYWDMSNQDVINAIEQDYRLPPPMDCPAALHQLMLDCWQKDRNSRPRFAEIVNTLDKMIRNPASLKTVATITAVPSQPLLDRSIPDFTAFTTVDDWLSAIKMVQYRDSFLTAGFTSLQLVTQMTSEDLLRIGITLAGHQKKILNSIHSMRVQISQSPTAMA

| Sequence | SH2 binding enrichment (SHP2-C SH2) | SH2 binding enrichment (c-Src SH2) | SH2 binding enrichment (Grb2 SH2) | phosphorylation enrichment (MERTK) | phosphorylation enrichment (Fer (mouse)) | phosphorylation enrichment (Jak2) | phosphorylation enrichment (Fyn) | phosphorylation enrichment (FGFR3) | phosphorylation enrichment (EPHB2) | phosphorylation enrichment (EPHB1) | phosphorylation enrichment (Hck) | phosphorylation enrichment (AncSZ) | phosphorylation enrichment (Fes) | phosphorylation enrichment (FGFR1) | phosphorylation enrichment (c-Src) | phosphorylation enrichment (c-Abl (mouse)) |
| --- | --- | --- | --- | --- | --- | --- | --- | --- | --- | --- | --- | --- | --- | --- | --- | --- |
| IMAFFYMCDRA [CASD1_Y382_YF] | 0.825 | 0.641 | 0.819 | 0.544 | 0.677 | 1.64 | 0.57 | 1.12 | 0.648 | 0.938 | 0.545 | 1.48 | 1.63 | 0.652 | 0.57 | 1.09 |
| FQGRRYDCDCD [CRYGS_Y21] | 0.687 | 0.571 | 0.926 | 0.529 | 0.368 | 0.751 | 0.428 | 0.497 | 0.383 | 0.373 | 0.5 | 0.875 | 0.936 | 0.478 | 0.471 | 0.647 |
| LFEDCYLLGTS [ASS1_Y87_R86C_YF] | 0.924 | 0.647 | 1.24 | 0.442 | 0.752 | 1.39 | 1.01 | 1.15 | 0.716 | 0.572 | 0.58 | 2.1 | 1.5 | 0.895 | 1.6 | 1.17 |
| RWGQKHMTAVV [CYBA_Y72_Y72H] | 1.66 | 1.6 | 1.68 | 0.587 | 0.692 | 2.7 | 0.699 | 0.74 | 0.559 | 0.516 | 0.5 | 1.13 | 1.39 | 0.483 | 0.496 | 0.81 |
| EAGKVYLKAAM [CBFB_Y96_P100A] | 0.781 | 0.462 | 0.893 | 0.333 | 0.568 | 1.26 | 0.408 | 0.742 | 0.484 | 0.565 | 0.494 | 1.03 | 1.26 | 0.674 | 0.449 | 0.775 |
| MASTSYDFCRV [BST2_Y6_YF] | 0.727 | 1.66 | 0.99 | 0.709 | 2.25 | 0.796 | 0.486 | 0.829 | 0.613 | 0.576 | 0.473 | 0.944 | 0.919 | 0.572 | 0.525 | 0.622 |
| NMSRIYSTAKV [ACE_Y151] | 1.25 | 0.545 | 0.901 | 0.417 | 0.416 | 0.535 | 0.477 | 0.448 | 0.493 | 0.342 | 0.528 | 0.573 | 0.563 | 0.451 | 0.477 | 0.545 |
| PEPTGYSAELS [EZR_Y499_A494P] | 0.63 | 0.461 | 0.87 | 0.567 | 0.456 | 0.871 | 0.57 | 0.762 | 0.851 | 0.573 | 0.419 | 1.02 | 0.943 | 0.502 | 0.461 | 0.962 |
| EEGENYQKGER [CHGB_Y173] | 0.602 | 0.436 | 0.816 | 0.425 | 0.518 | 0.963 | 0.518 | 0.731 | 0.571 | 0.53 | 0.467 | 0.921 | 1.15 | 0.509 | 0.463 | 0.797 |
| GEDDVYDSVPG [FGR_opt_2018] | 0.623 | 0.587 | 0.85 | 0.544 | 0.861 | 0.946 | 1.59 | 0.783 | 0.762 | 0.683 | 1.37 | 1.39 | 1.2 | 0.676 | 0.933 | 0.617 |

Continued, in another order:

| SH2 binding enrichment (SHP2-C SH2) | SH2 binding enrichment (c-Src SH2) | SH2 binding enrichment (Grb2 SH2) | Sequence | phosphorylation enrichment (MERTK) | phosphorylation enrichment (Fer (mouse)) | phosphorylation enrichment (Jak2) | phosphorylation enrichment (Fyn) | phosphorylation enrichment (FGFR3) | phosphorylation enrichment (EPHB2) | phosphorylation enrichment (EPHB1) | phosphorylation enrichment (Hck) | phosphorylation enrichment (AncSZ) | phosphorylation enrichment (Fes) | phosphorylation enrichment (FGFR1) | phosphorylation enrichment (c-Src) | phosphorylation enrichment (c-Abl (mouse)) |
| --- | --- | --- | --- | --- | --- | --- | --- | --- | --- | --- | --- | --- | --- | --- | --- | --- |
| 0.565 | 0.412 | 0.636 | KGEDFYYVTCH [FHL1_Y149_C150Y] | 1.32 | 0.71 | 1.43 | 0.692 | 1.69 | 0.729 | 0.802 | 0.724 | 1.35 | 1.43 | 1.35 | 0.774 | 1.11 |
| 0.842 | 0.561 | 0.821 | RQQEDYLLYKQ [RARRES1_Y159] | 0.631 | 1.1 | 2.46 | 0.547 | 0.86 | 0.823 | 0.793 | 0.969 | 1.32 | 1.65 | 0.743 | 0.941 | 1.39 |
| 0.592 | 4.4 | 0.652 | EIIPFYGMSSF [FNDC3B_Y175_T179S_YF] | 1.54 | 1.46 | 0.772 | 1.06 | 0.786 | 0.916 | 0.764 | 1.15 | 1.06 | 0.995 | 0.497 | 0.822 | 0.865 |
| 0.859 | 0.703 | 1.06 | TFSPPYYHRNC [HGD_Y333_R330S] | 0.526 | 0.497 | 0.83 | 0.5 | 0.654 | 0.52 | 0.45 | 0.531 | 0.822 | 0.813 | 0.565 | 0.535 | 0.612 |
| 0.463 | 0.545 | 0.64 | QDEHGYISWCF [HSPB1_Y133_R136W] | 0.8 | 1.05 | 2.61 | 0.559 | 1.8 | 0.873 | 1 | 0.944 | 2.17 | 2.34 | 1.27 | 0.865 | 1.55 |
| 0.538 | 0.58 | 0.829 | YKEDPYLVVNP [MCM6_Y810_E806K] | 0.455 | 0.46 | 1.03 | 1.04 | 1.09 | 0.515 | 0.405 | 0.591 | 1.19 | 1.11 | 1.24 | 1.74 | 0.662 |
| 0.816 | 1.05 | 1 | FCRHNYGAVES [HLA-DRB1_Y112_V114A_YF] | 0.439 | 0.42 | 0.856 | 0.359 | 0.604 | 0.555 | 0.674 | 0.441 | 0.628 | 0.826 | 0.471 | 0.527 | 0.83 |
